Values of other authors in publication PMC5418926.

Molecular target: Lys53 (UniProt position 53, YGGQTKPIFRK)
Experiment: chemical modification (inferred: crosslinking with periodate-oxidised tRNA); not described in this article

Substance | pKa (endogenous eL42 in situ in the human 80S ribosome, crosslinked with tRNAox) | pKa (recombinant eL42 off the ribosome)
60S ribosomal protein eL42 (L36a-like / RPL36AL), endogenous, in the human 80S ribosome (Homo sapiens) | 6.9 ± 0.1 | –
60S ribosomal protein eL42 (formerly L36a / RPL36A), recombinant (Homo sapiens) | – | 6.9 + 0.1
